Measured values published in paper doi:10.1101/854133.

Target: FANCI-Ub (mono-ubiquitinated at K523);FANCD2-Ub (mono-ubiquitinated at K561) (human;human) (UniProt Q9NVI1+Q9BXW9)
Experiment: EMSA
Details: nick

FANCI-Ub (mono-ubiquitinated at K523);FANCD2-Ub (mono-ubiquitinated at K561) (human;human), sequence (Q9NVI1 whole entry, chain 1 of 2): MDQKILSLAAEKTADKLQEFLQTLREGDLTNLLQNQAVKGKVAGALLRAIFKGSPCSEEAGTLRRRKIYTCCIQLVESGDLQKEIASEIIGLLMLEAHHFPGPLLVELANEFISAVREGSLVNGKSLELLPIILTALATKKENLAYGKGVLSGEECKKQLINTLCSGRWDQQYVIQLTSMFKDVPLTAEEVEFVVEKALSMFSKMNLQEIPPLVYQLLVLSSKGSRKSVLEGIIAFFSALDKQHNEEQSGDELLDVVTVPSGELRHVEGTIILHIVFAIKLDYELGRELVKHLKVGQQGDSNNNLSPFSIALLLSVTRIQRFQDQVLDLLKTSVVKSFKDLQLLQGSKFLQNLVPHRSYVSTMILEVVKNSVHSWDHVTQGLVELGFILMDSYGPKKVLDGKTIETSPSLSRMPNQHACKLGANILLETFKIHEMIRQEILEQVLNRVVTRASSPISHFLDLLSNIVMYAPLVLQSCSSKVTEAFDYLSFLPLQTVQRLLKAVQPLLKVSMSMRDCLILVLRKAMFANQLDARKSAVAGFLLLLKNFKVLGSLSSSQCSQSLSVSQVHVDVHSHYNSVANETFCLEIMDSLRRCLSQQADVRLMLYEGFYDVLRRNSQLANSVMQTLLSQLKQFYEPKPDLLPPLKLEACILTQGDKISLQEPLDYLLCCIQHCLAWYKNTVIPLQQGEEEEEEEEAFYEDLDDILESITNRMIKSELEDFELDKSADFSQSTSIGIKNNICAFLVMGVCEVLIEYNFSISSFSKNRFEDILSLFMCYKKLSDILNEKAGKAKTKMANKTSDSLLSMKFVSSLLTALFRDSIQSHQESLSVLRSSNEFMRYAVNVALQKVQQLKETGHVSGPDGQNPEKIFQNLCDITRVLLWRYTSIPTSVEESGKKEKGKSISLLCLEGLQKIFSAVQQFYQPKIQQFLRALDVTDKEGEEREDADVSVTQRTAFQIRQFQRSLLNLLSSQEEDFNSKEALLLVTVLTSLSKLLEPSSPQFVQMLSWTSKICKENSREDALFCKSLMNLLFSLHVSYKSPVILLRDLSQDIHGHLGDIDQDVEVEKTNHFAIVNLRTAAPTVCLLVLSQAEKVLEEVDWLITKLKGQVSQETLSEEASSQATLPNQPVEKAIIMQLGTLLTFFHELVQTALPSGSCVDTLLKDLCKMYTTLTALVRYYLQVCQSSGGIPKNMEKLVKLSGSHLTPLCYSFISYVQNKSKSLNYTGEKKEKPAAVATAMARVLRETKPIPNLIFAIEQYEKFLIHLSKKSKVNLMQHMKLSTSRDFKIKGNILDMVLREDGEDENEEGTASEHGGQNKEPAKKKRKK
FANCI-Ub (mono-ubiquitinated at K523);FANCD2-Ub (mono-ubiquitinated at K561) (human;human), sequence (Q9BXW9 whole entry, chain 2 of 2): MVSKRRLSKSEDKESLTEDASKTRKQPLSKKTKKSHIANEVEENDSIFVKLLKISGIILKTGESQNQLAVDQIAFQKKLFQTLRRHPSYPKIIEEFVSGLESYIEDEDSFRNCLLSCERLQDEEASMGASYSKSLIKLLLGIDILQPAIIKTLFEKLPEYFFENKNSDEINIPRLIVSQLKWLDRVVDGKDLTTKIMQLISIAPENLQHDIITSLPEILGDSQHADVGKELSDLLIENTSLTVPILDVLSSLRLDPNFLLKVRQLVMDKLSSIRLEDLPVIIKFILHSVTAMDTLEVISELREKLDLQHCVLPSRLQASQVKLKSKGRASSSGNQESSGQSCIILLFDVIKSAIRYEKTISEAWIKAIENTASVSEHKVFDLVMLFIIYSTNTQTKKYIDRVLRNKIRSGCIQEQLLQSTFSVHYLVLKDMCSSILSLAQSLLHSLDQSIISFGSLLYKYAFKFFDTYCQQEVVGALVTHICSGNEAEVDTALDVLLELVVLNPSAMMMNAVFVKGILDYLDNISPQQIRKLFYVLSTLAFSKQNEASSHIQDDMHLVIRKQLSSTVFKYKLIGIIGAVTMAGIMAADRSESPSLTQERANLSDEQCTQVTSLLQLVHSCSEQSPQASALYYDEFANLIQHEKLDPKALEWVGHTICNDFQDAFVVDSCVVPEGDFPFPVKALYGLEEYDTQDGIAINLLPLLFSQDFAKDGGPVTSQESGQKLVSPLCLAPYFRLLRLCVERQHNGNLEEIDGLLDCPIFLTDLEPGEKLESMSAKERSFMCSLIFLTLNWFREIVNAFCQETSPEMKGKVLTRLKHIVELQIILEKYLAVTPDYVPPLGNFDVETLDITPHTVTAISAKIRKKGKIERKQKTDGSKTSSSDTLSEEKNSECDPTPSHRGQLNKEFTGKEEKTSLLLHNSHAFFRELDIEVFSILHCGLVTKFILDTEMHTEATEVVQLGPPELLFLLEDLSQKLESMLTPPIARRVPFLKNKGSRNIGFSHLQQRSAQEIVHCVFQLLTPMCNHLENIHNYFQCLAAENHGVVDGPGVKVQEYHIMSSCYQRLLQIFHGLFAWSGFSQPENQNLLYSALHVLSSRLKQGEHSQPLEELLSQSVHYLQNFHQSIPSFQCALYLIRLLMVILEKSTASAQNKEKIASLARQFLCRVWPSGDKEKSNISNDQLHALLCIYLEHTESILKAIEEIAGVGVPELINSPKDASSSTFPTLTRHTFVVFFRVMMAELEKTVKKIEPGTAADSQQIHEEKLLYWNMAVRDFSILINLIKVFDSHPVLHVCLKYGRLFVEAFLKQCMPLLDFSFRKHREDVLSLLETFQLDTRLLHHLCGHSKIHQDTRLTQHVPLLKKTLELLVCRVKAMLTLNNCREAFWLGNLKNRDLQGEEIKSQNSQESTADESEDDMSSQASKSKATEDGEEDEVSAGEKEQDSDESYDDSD

With nicked DNA, EMSA the Kd was 20 nM.
